Key:
[1] = biological target: ALK5-Flag (transforming growth factor-β receptor 1, TGFBR1) (UniProt P36897)
[2] = biological target: ALK5-Flag (transforming growth factor-β receptor 1, TGFBR1) (UniProt P36897); remark: listed apart in the source

Sequence of UniProt P36897 (P36897 34-503): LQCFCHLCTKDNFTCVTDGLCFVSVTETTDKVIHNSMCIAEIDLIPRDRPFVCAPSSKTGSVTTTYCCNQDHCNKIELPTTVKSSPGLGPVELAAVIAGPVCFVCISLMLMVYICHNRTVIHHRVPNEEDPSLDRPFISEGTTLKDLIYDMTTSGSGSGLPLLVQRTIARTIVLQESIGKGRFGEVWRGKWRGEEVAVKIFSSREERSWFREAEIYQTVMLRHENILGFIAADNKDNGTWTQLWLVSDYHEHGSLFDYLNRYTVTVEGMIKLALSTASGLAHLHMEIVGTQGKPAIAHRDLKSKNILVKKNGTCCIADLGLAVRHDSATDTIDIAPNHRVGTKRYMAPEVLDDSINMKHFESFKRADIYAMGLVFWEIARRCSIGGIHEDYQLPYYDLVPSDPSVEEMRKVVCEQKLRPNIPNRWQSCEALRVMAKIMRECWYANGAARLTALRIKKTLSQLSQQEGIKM

## LumC13 peptide (the last C-terminal 13 amino acids of Lum)
[1]
  rate constant 1 of healing of scratched HTCE cells, LumC13 peptide: 4.62 Δ%/h
  rate constant 2 of healing of scratched HTCE cells, LumC13 peptide: 13.5 Δ%/h

## GST-Lum (recombinant GST-lumican fusion protein) (from UniProt P51885 19-338) (natural protein)
[1]
  rate constant 1 of healing of scratched HTCE cells, GST-Lum in basic medium: 5.37 Δ%/h
  rate constant 2 of healing of scratched HTCE cells, GST-Lum in basic medium: 14.8 Δ%/h
[2]
  rate constant 1 of healing of scratched HTCE cells, GST-Lum with the ALK5 inhibitor SB431542 (10 µM); monophasic, no rate constant 2: 1.89 Δ%/h

## GST-LumC50 (GST fusion with the C-terminal 50 amino acids of Lum) (domain or fragment)
[1]
  rate constant 1 of healing of scratched HTCE cells, GST-LumC50 in basic medium: 5.35 Δ%/h
  rate constant 2 of healing of scratched HTCE cells, GST-LumC50 in basic medium: 14 Δ%/h

## LumC13C-A peptide (LumC13 with the cysteine substituted with alanine)
[1]
  rate constant 1 of healing of scratched HTCE cells, LumC13C-A peptide: 5.1 Δ%/h
  rate constant 2 of healing of scratched HTCE cells, LumC13C-A peptide: 13.9 Δ%/h

From article PMC3867403
